Test results published in paper PMC12673853, “Impaired nick recognition and ligation efficiency by LIG1 K845N variant linked to Huntington’s disease”.
Residue numbers refer to the chain shown, from its start.

Assays:
[1] = biological target: T1, LIG1 wild-type (Cy5-labelled) (human, UniProt P18858 1-919); assay: single-molecule TIRF co-localization; tbound 7.0 ± 0.9 s and 0.7 ± 0.1 s; tunbound 61 ± 2 s; 1 nM LIG1; TIRF: 1 mM HEPES pH 7.4, 20 mM NaCl, 0.02% BSA, 0.002% Tween 20, oxygen scavenger (44 mM glucose, glucose oxidase, catalase), 10 mM Trolox, 1 nM LIG1-Cy5, room; conditions: protein: recombinant; tags: 6xHis; Cy5 (NHS ester); label: 5'-biotin on S15; 3'-AF488 on S18; blunt 34-bp duplex with one nick between S15 and S18; 3'-A opposite T at nick
T1 sequence (P18858 whole entry): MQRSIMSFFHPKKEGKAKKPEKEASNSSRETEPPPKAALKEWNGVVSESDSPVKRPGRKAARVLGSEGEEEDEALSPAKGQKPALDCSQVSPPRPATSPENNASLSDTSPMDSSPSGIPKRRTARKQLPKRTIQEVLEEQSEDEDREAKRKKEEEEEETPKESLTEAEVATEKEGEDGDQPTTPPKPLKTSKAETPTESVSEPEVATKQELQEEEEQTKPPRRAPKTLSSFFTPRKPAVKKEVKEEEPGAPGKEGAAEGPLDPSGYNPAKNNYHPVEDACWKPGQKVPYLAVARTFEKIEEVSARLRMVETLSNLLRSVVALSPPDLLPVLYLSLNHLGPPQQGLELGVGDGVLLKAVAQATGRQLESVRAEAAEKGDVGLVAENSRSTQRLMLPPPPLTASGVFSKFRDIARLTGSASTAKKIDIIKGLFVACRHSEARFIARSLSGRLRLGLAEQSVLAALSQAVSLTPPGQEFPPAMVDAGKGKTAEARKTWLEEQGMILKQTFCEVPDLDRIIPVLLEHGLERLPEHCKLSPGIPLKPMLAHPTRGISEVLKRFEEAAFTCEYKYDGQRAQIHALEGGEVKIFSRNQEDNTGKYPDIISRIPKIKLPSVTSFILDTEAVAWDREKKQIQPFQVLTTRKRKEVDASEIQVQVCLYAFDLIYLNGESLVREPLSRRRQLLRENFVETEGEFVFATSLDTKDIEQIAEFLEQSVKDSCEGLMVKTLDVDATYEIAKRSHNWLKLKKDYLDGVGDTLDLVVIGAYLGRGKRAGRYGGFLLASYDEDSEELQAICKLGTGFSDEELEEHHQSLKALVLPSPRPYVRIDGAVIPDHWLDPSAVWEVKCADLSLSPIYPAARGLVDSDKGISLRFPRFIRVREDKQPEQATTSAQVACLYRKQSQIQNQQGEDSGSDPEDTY

[2] = biological target: T1, LIG1 wild-type (Cy5-labelled); assay: single-molecule TIRF co-localization; tunbound 79 ± 5 s; 1 nM LIG1; TIRF: 1 mM HEPES pH 7.4, 20 mM NaCl, 0.02% BSA, 0.002% Tween 20, oxygen scavenger (44 mM glucose, glucose oxidase, catalase), 10 mM Trolox, 1 nM LIG1-Cy5, room; conditions: protein: recombinant; tags: 6xHis; Cy5 (NHS ester); label: 5'-biotin on strand 1; 3'-AF488 on S18; blunt 34-bp duplex with one nick between strand 1 and S18; 3'-8oxoG opposite A at nick
[3] = biological target: LIG1 K845N (Cy5-labelled) (human, UniProt P18858 1-919, K845N); assay: single-molecule TIRF co-localization; long tbound 4 ± 0.7 s; tunbound 113 ± 8 s; similar to its nick binding, mostly nonspecific; 1 nM LIG1; TIRF: 1 mM HEPES pH 7.4, 20 mM NaCl, 0.02% BSA, 0.002% Tween 20, oxygen scavenger (44 mM glucose, glucose oxidase, catalase), 10 mM Trolox, 1 nM LIG1-Cy5, room; conditions: protein: recombinant; tags: 6xHis; Cy5 (NHS ester); label: 5'-biotin and 3'-AF488 on S1; blunt, no nick
LIG1 K845N (Cy5-labelled), sequence (P18858 whole entry K845N): as the sequence (P18858 whole entry) above, with K845N counted along it

B1: nick A:T (dsDNA)
DNA 1: CATGGGCGGCATGAACCA
DNA 2: GAGGCCCATCCTCACC
DNA 3: GGTGAGGATGGGCCTCTGGTTCATGCCGCCCATG
modifications: 5'-phosphate on S18 at nick
B1: binds [1].

B2: nick 8oxoG:A (dsDNA)
DNA 1: CATGGGCGGCATGAACCG
DNA 2: GAGGCCCATCCTCACC
DNA 3: B1 DNA 3 with T17A
modifications: 8-oxo-dG at position 18 of strand 1; 5'-phosphate on S18 at nick
B2: binds [2].

B3: no-nick dsDNA (dsDNA)
DNA 1: CATGGGCGGCATGAACCAGAGGCCCATCCTCACC
DNA 2: B1 DNA 3
B3: binds [3].
